Molecular target: T1, glutamate dehydrogenase (endogenous, 293T cells) (human, UniProt P00367 54-558, ADP-ribosylated (32P-labelled) in the mitochondrial labelling experiments; site not stated)
T1 construct: Endogenous protein in 293T lysate or mitochondria; also called GDH
Test: anti-FLAG immunoprecipitation from 32P-NAD labelled mitochondria of 293T cells overexpressing Sirt4-FLAG, autoradiography
Description: FIG. 5. Glutamate dehydrogenase is ADP-ribosylated in vivo and interacts with Sirt4. FIG. 5A. Mitochondria (50 mg) from 293T cells were incubated with [³²P]-NAD at 37° C. for 30 min. Proteins were separated by SDS-PAGE, transferred to a nitrocellulose membrane, and radioactivity was measured by exposure to film. FIG. 5B. Mitochondrial proteins were ADP-ribosylated as described for FIG. 5A, and lysis was performed in NP-40 buffer containing 10 mM DTT and 0.5 mM EDTA. Clarified lysate was incubated with protein A resin that had been pre-incubated with antibodies against hSirt4, ANT or glutamate dehydrogenase (GDH). FIG. 5C. 293T cells were transiently transfected with 10 μg of pCMV (V) or phSirt4-FLAG (4). Cells were harvested and lysed in NP-40 buffer containing protease inhibitors and 1 mM DTT. […] An endogenous interaction between Sirt4 and glutamate dehydrogenase was determined in MIN6 cells. […] Proteins were separated by SDS-PAGE, transferred to nitrocellulose membrane, and the radioactivity was measured by exposure to x-ray film.
Mitochondria from 293T control or Sirt4-FLAG overexpressing cells were incubated with [³²P]-NAD, and the ADP-ribosylation state of glutamate dehydrogenase was measured by immunoprecipitation and subsequent autoradiography. […] Moreover, a small amount of labeled glutamate dehydrogenase could be detected in a complex with Sirt4 (FIG. 5E).

T1 sequence (P00367 54-558): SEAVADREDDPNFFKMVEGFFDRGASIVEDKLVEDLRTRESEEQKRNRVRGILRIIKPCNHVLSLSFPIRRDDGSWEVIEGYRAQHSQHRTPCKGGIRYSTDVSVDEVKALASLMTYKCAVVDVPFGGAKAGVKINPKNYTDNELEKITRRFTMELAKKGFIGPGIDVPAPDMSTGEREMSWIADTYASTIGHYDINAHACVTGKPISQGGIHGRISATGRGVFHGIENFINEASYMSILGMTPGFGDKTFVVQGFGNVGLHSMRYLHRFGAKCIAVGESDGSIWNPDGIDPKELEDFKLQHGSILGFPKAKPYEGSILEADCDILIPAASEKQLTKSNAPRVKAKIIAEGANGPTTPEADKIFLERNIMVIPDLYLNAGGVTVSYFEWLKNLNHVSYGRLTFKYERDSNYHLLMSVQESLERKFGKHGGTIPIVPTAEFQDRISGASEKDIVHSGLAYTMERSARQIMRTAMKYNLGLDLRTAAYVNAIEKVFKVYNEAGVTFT

binding result: binds
B1: human Sirt4 with a C-terminal FLAG (enzyme)
chain: IGLFVPASPPLDPEKVKELQRFITLSKRLLVMTGAGISTESGIPDYRSEKVGLYARTDRRPIQHGDFVRSAPIRQRYWARNFVGWPQFSSHQPNPAHWALSTWEKLGKLYWLVTQNVDALHTKAGSRRLTELHGCMDRVLCLDCGEQTPRGVLQERFQVLNPTWSAEAHGLAPDGDVFLSEEQVRSFQVPTCVQCGGHLKPDVVFFGDTVNPDKVDFVHKRVKEADSLLVVGSSLQVYSGYRFILTAWEKKLPIAILNIGPTRSDDLACLKLNSRCGELLPLIDPC
notes: Overexpressed in 293T cells from phSirt4FLAG; Used in cell lysate or immunoprecipitated and eluted with FLAG peptide; also called hSirt4-FLAG; Sirt4-FLAG; not shown: C-terminal FLAG tag from vector pCMV-FLAG-4A

Source: patent publication US20070099830A1 (MIT, published 2007)
